Test results: the RNAGym collection of RNA variant scans (doi:10.1093/molbev/msab373)

B1: Azoarcus group I ribozyme (parent)
chain: GUGCCUUGCGCCGGGAAACCACGCAAGGGAUGGUGUCAAAUUCGGCGAAACCUAAGCGCCCGCCCGGGCGUAUGGCAACGCCGAGCCAAGCUUCGGCGCCUGCGCCGAUGAAGGUGUAGAGACUAGACGGCACCCACCUAAGGCAAACGCUAUGGUGAAGGCAUAGUCCAGGGAGUGGCGAAAGUCACACAAACCGG

Variants of: B1
Assay: reverse-splicing fitness (ratio to wild type); higher = more active; in vitro selection; Mg2+ level not given
Outline: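 An in vitro group I ribozyme library with randomized positions was T7-transcribed and gel-purified. In triplicate, 10 pmol RNA in EPPS pH 7.5 was reacted with 50 pmoles of a 30-nt RNA substrate for 1 h at 37 °C across several added MgCl2 levels (1–48 mM), then stopped with EDTA. Products were reverse transcribed from a substrate-complementary primer, PCR-amplified and sequenced (HiSeq 4000). Fitness is a variant's read proportion after selection over that before, normalised to wild type.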

Row | Variant | reverse-splicing fitness
1 | C82A A111C A120G C150U | 0.0107
2 | C82A A111C A120G C150A | 0.00933
3 | C82A A111C A120G C150G | 0.00723
4 | C82A A111C A120U A145C C150U U176G | 0.0028
5 | C82A A111C A120U A145C C150U U176A | 0.00424
6 | C82A A111C A120U A145C C150U U176C | 0.00525
7 | C82A A111C A120U A145U C150A U176A | 0.00477
8 | C82A A111C A120U A145U C150A U176G | 0.00301
9 | C82A A111C A120U A145U C150A U176C | 0.0062
10 | C82A A111C A120G A145U C150G | 0.00701
11 | C82A A111C A120G A145U C150U | 0.0124
12 | C82A A111C A120G A145U C150A | 0.00771
13 | C82A A111C A120U A145G U176C | 0.0109
14 | C82A A111C A120U A145G U176G | 0.0035
15 | C82A A111C A120U A145G U176A | 0.00698
16 | C82A A111C A120U A145G C169G U176G | 0.00244
17 | C82A A111C A120U A145G C169G U176C | 0.00437
18 | C82A A111C A120U A145G C169G U176A | 0.00381
19 | C82A A111C A120U A145G C150A C169G U176A | 0.00687
20 | C82A A111C A120U A145G C150A C169G U176G | 0.00261
21 | C82A A111C A120U A145G C150A C169G U176C | 0.00514

Row | Variant | reverse-splicing fitness
22 | C82A A111C A120U A145U C150U C169G U176A | 0.00315
23 | C82A A111C A120G C150A C169A U176A | 0.0182
24 | C82A A111C A120G C150A C169A U176G | 0.00729
25 | C82A A111C A120G C150A C169A U176C | 0.0168
26 | C82A A111C A120G A145U C150U C169G | 0.00909
27 | C82A A111C A120G A145U C150U C169A | 0.00903
28 | C82A A111C A120G A145U C150U C169U | 0.00924
29 | C82A A111C A120U A145G C150U U176C | 0.0108
30 | C82A A111C A120U A145G C150U U176G | 0.00369
31 | C82A A111C A120U A145G C150U U176A | 0.00986
32 | C82A A111C A120U A145C C150U C169U U176A | 0.00329
33 | C82A A111C A120U A145C C150U C169U U176C | 0.00286
34 | C82A A111C A120U A145C C150U C169U U176G | 0.00284
35 | C82A A111C A120G A145G C150U U176A | 0.00883
36 | C82A A111C A120G A145G C150U U176G | 0.00706
37 | C82A A111C A120G A145G C150U U176C | 0.0186
38 | C82A A111C A120G C169G U176G | 0.00494
39 | C82A A111C A120G C169G U176C | 0.0214
40 | C82A A111C A120G C169G U176A | 0.0165
41 | C82A A111C A120G A145G C150U C169U U176A | 0.0155
42 | C82A A111C A120G A145G C150U C169U U176G | 0.00525

Row | Variant | reverse-splicing fitness
43 | C82A A111C A120G A145G C150U C169U U176C | 0.0131
44 | C82A A111C A120U A145C C150U C169G | 0.00378
45 | C82A A111C A120U A145C C150U C169A | 0.00362
46 | C82A A111C A120U A145C C150U C169U | 0.00379
47 | C82A A111C A120G A145U C150A C169A U176G | 0.00621
48 | C82A A111C A120G A145U C150A C169A U176A | 0.0115
49 | C82A A111C A120G A145U C150A C169A U176C | 0.0113
50 | C82A A111C A120U A145C C169G U176A | 0.00292
51 | C82A A111C A120U A145C C169G U176C | 0.00316
52 | C82A A111C A120U A145C C169G U176G | 0.00255
53 | C82A A111C A120G A145U C150A C169U U176C | 0.0127
54 | C82A A111C A120G A145U C150A C169U U176A | 0.017
55 | C82A A111C A120G A145U C150A C169U U176G | 0.00563
56 | C82A A111C A120U A145U C150A C169A | 0.00298
57 | C82A A111C A120U A145U C150A C169G | 0.00349
58 | C82A A111C A120U A145U C150A C169U | 0.00332
59 | C82A A111C A120G A145G C150G C169U | 0.00877
60 | C82A A111C A120U A145G C150U C169A U176C | 0.00432
61 | C82A A111C A120U A145G C150U C169A U176A | 0.00915
62 | C82A A111C A120U A145G C150U C169A U176G | 0.00324
63 | C82A A111C A120U A145G C150G C169A U176A | 0.0122

Row | Variant | reverse-splicing fitness
64 | C82A A111C A120U A145G C150G C169A U176C | 0.0094
65 | C82A A111C A120U A145G C150G C169A U176G | 0.00541
66 | C82A A111C A120U A145C C169U U176G | 0.00232
67 | C82A A111C A120U A145C C169U U176A | 0.00272
68 | C82A A111C A120U A145C C169U U176C | 0.00326
69 | C82A A111C A120G C150A C169U U176C | 0.018
70 | C82A A111C A120G C150A C169U U176G | 0.00682
71 | C82A A111C A120G C150A C169U U176A | 0.018
72 | C82A A111C A120G A145U | 0.0152
73 | C82A A111C A120U A145U C150A C169U U176C | 0.00301
74 | C82A A111C A120U A145U C150A C169U U176A | 0.00378
75 | C82A A111C A120U A145U C150A C169U U176G | 0.00282
76 | C82A A111C A120G C169A U176G | 0.00465
77 | C82A A111C A120G C169A U176C | 0.0177
78 | C82A A111C A120G C169A U176A | 0.0155
79 | C82A A111C A120G C150A C169A | 0.00919
80 | C82A A111C A120G C150A C169U | 0.00723
81 | C82A A111C A120G C150A C169G | 0.00885
82 | C82A A111C A120G A145G C169A | 0.0107
83 | C82A A111C A120G A145G C169G | 0.00963
84 | C82A A111C A120G A145G C169U | 0.00908
